These results are taken from patent US20030026781A1, “Compositions and methods for regulating endogenous inhibitor of ATP synthase, including treatment for diabetes” (MitoKor, priority 1999, published 2003).

One assay relates to INS-1 cells. In words: Glucose-stimulated insulin secretion (GSIS) in INS-1 cells with tat.mito.14-47. The format is cell-based, rat. Particulars: 8 mM glucose, varying amounts of fusion protein, FIG. 13. On the procedure: The nucleic acid encoding a tat.mito.14-47 fusion protein was constructed essentially as described in Example 2. The tat.mito.14-47 fusion protein (SEQ ID NO:71) enhanced GSIS in INS-1 cells when used in the assay conditions described as follows. Briefly, INS-1 cells were seeded into 12-well plates containing RPMI media supplemented as described at 0.7×10^6 cells/well and cultured at 37° C., 5% CO2 for 2 days. Cells were preincubated in the presence or absence of varying amounts of tat.mito.14-47 or vehicle control in glucose-free RPMI media supplemented with 1% FCS for 1 hr at 37° C. in a humidified 5% CO2/95% air atmosphere. Cells were rinsed with glucose-free modified KRH buffer (134 mM NaCl, 3.6 mM KCl, 0.5 mM NaH2PO4, 0.5 mM MgCl2, 1.5 mM CaCl2, 10 mM HEPES, 5 mM NaHCO3, 0.1% BSA), incubated in the same buffer for 30 min at 37° C. in a humidified 5% CO2/95% air atmosphere, again in the presence or absence of varying amounts of tat.mito.14-47 or vehicle control. Then fresh modified KRH buffer containing 0.25 mM isobutylmethyl xanthine and 8 mM glucose was added, the cells were stimulated for 30 min at 37° C., 5% CO2 and then culture supernatants were collected. Insulin concentrations in the supernatants were measured by immunoasssay (Alpco ELISA Kit) and normalized to protein (Pierce/BCA Kit) according to the manufacturers' instructions.

Assay [1] concerns the target T1, mitochondrial ATP synthase (ETC Complex V) in rat liver submitochondrial particles (Rattus norvegicus, UniProt P10719+P15999).
T1 construct: rat liver submitochondrial particles (SMP) prepared from male Sprague-Dawley rat livers; from tissue; host or cells: male Sprague-Dawley rat liver, submitochondrial particles (method of Walker et al. 1995)
Put plainly: Oligomycin-sensitive ATPase (ATP hydrolase) activity in rat liver submitochondrial particles (SMP). In kind it is biochemical. As to conditions: read-out: IC50 for oligomycin-sensitive ATPase inhibition. Here is the method:
The IF1(42-58) polypeptide was also tested for its ability to inhibit the F0-F1-ATPase in rat ASMPs (alkaline submitochondrial particles) prepared as in the preceding Example. […] ATP hydrolase activity was expressed as the percent of detectable activity in the absence of added IF1-containing fusion protein, and the level of oligomycin-inhibitable activity was also determined (FIG. 8).
The effects of the IF1 peptides on ATPase activity were determined by assaying ATPase in rat liver submitochondrial particles (SMP) prepared from male Sprague-Dawley rat livers according to the method of Walker et al. (1995 Meth. Enzymol. 260:163-190). […] Louis, Mo., unless otherwise noted) for 10 min at room temperature. The mixtures were then added to assay buffer (50 mM Tris-HCl, 3.3 mM MgCl2, pH 8.0) in a 96-well plate and ATPase activity was initiated by the addition of 1 mM ATP, 1 mM phophoenolypyruvate, 3 U/ml pyruvate kinase, 10 U/ml lactate dehydrogenase and 0.3 mM NADH. Reactions were monitored by recording absorbance in “kinetic read” mode at 340 nm for 10 min at 30° C. in a termperature-controlled Spectromax Plus-384™ 96-well plate reader (Molecular Devices, Inc., Sunnyvale, Calif.) according to the manufacturer's instructions. In this mode, the plate reader recorded an absorbance value for each well at approximately nine-second intervals. A parallel set of reactions was set up identically except for the addition of 10 μg/ml oligomycin, to correct for the component of ATPase activity that was oligomycin-inhibitable.
Dose-response curves were generated for IF1 peptides 14-33 (SEQ ID NO:30), 14-47 (SEQ ID NO:29), 14-46 (SEQ ID NO:67), 14-45 (SEQ ID NO:66), 14-44 (SEQ ID NO:65), 14-43 (SEQ ID NO:64) and 14-42 (SEQ ID NO:63) by setting up SMP ATPase reactions as described above with serial dilutions of the IF1 peptides over a range of several orders of magnitude between 10^−4 and 10^2 μM (FIG. 12). Data were plotted and IC50 values were calculated using Prism software (GraphPad, San Diego, Calif.) according to the nianufacturer's instructions. […]

“Also recorded” adds a separate entry of the source. Where two headings read alike, the source gives them in different places.

B1: tat.mito.14-47: fusion protein SEQ ID NO:71: polyhistidine tag, tat, mitochondrial targeting sequence, IF1 fragment 14-47 (protein)
chain: MGGSHHHHHHGMASMTGGQQMGRDLYDDDDKDPSSGYGRKKRRQRRRGMAGSALAVRARLGVWGMRVLQTRGFSIREAGGAFGKREKAEEDRYFREKTREQLAALKK
modifications: Fusion protein
Turning to B1, the “effect on GSIS” value in the assay with INS-1 cells is on record as “enhanced GSIS; also recorded: further induced glucose stimulated insulin secretion in a dose dependent manner”.

B2: rat IF1: intact rat inhibitor protein of mitochondrial ATP synthase (SEQ ID NO:13), comparator for peptide 14-47 (protein, listed as Rattus norvegicus)
chain: MAGSALAVRARLGVWGMRVLQTRGFGSDSSESMDSGAGSIREAGGAFGKREKAEEDRYFREKTREQLAALKKHHEDEIDHHSKEIERLQKQIERHKKKIKYLKNSEH
B2: the figures for the IC50 in assay [1] (pH 6.5), in assay [1] (pH 7.25) and in assay [1] (pH 8) were 190 ± 24 nM, 420 ± 56 nM and over 800 nM, respectively.

By IC50 is commonly meant the concentration needed to halve the response being measured.
